Results as given in US20240117018A1.

Tests used:
Assay in all cases: cell-based or functional assay
[1] = target: HIV-1 Env of pseudovirus 191955_A11 (HIV-1)
[2] = target: HIV-1 Env of pseudovirus 3016.v5.c45 (HIV-1)
[3] = target: HIV-1 Env of pseudovirus 3103.v3.c10 (HIV-1)
[4] = target: HIV-1 Env of pseudovirus 620345.c01 (HIV-1)
[5] = target: HIV-1 Env of pseudovirus 62357_14_D3_4589 (HIV-1)
[6] = target: HIV-1 Env of pseudovirus 6952.v1.c20 (HIV-1)
[7] = target: HIV-1 Env of pseudovirus AC10.0.29 (HIV-1)
[8] = target: HIV-1 Env of pseudovirus BJOX028000.10.3 (HIV-1)
[9] = target: HIV-1 Env of pseudovirus CAP210.2.00.E8 (HIV-1)
[10] = target: HIV-1 Env of pseudovirus CNE20 (HIV-1)
[11] = target: HIV-1 Env of pseudovirus Ce1086_B2 (HIV-1)
[12] = target: HIV-1 Env of pseudovirus Ce1172_H1 (HIV-1)
[13] = target: HIV-1 Env of pseudovirus Du172.17 (HIV-1)
[14] = target: HIV-1 Env of pseudovirus Du422.1 (HIV-1)
[15] = target: HIV-1 Env of pseudovirus PVO.4 (HIV-1)
[16] = target: HIV-1 Env of pseudovirus Q259.d2.17 (HIV-1)
[17] = target: HIV-1 Env of pseudovirus R1166.c01 (HIV-1)
[18] = target: HIV-1 Env of pseudovirus T250-4 (HIV-1)
[19] = target: HIV-1 Env of pseudovirus X1254_c3 (HIV-1)
[20] = target: HIV-1 Env of pseudovirus X2088_c9 (HIV-1)
[21] = target: MuLV envelope (negative control pseudovirus) (MuLV)

Q: For N49P7YTE (antibody), which IC50 (Titer in TZM.bl cells) [1] is on record?
A: 39 mg/L

Q: What about the IC80 (Titer in TZM.bl cells) [1] of the same substance?
A: > 50 mg/L

Q: And the MPI [1]?
A: 56

Q: And the IC50 (Titer in TZM.bl cells) [2]?
A: 1.15 mg/L

Q: What about the IC80 (Titer in TZM.bl cells) [2] of the same substance?
A: 9.65 mg/L

Q: What about the MPI [2] of the same substance?
A: 89

Q: And the IC50 (Titer in TZM.bl cells) [3]?
A: 0.322 mg/L

Q: What about the IC80 (Titer in TZM.bl cells) [3] of the same substance?
A: 0.583 mg/L

Q: And the MPI [3]?
A: 100

Q: What about the IC50 (Titer in TZM.bl cells) [4] of the same substance?
A: > 50 mg/L

Q: What about the IC80 (Titer in TZM.bl cells) [4] of the same substance?
A: > 50 mg/L

Q: And the MPI [4]?
A: 0

Q: And the IC50 (Titer in TZM.bl cells) [5]?
A: 0.039 mg/L

Q: What about the IC80 (Titer in TZM.bl cells) [5] of the same substance?
A: 0.173 mg/L

Q: And the MPI [5]?
A: 100

Q: What about the IC50 (Titer in TZM.bl cells) [6] of the same substance?
A: > 50 mg/L

Q: And the IC80 (Titer in TZM.bl cells) [6]?
A: > 50 mg/L

Q: What about the MPI [6] of the same substance?
A: 13

Q: And the IC50 (Titer in TZM.bl cells) [7]?
A: > 50 mg/L

Q: And the IC80 (Titer in TZM.bl cells) [7]?
A: > 50 mg/L

Q: And the MPI [7]?
A: 28

Q: And the IC50 (Titer in TZM.bl cells) [8]?
A: 0.018 mg/L

Q: And the IC80 (Titer in TZM.bl cells) [8]?
A: 0.155 mg/L

Q: What about the MPI [8] of the same substance?
A: 100

Q: What about the IC50 (Titer in TZM.bl cells) [9] of the same substance?
A: 3.11 mg/L

Q: And the IC80 (Titer in TZM.bl cells) [9]?
A: 13.9 mg/L

Q: And the MPI [9]?
A: 99

Q: And the IC50 (Titer in TZM.bl cells) [10]?
A: 0.11 mg/L

Q: What about the IC80 (Titer in TZM.bl cells) [10] of the same substance?
A: 0.317 mg/L

Q: What about the MPI [10] of the same substance?
A: 99

Q: And the IC50 (Titer in TZM.bl cells) [11]?
A: 0.113 mg/L

Q: What about the IC80 (Titer in TZM.bl cells) [11] of the same substance?
A: 0.53 mg/L

Q: What about the MPI [11] of the same substance?
A: 99

Q: And the IC50 (Titer in TZM.bl cells) [12]?
A: > 50 mg/L

Q: What about the IC80 (Titer in TZM.bl cells) [12] of the same substance?
A: > 50 mg/L

Q: What about the MPI [12] of the same substance?
A: 12

Q: And the IC50 (Titer in TZM.bl cells) [13]?
A: 0.283 mg/L

Q: And the IC80 (Titer in TZM.bl cells) [13]?
A: 0.953 mg/L

Q: And the MPI [13]?
A: 100

Q: And the IC50 (Titer in TZM.bl cells) [14]?
A: 13.2 mg/L

Q: And the IC80 (Titer in TZM.bl cells) [14]?
A: > 50 mg/L

Q: What about the MPI [14] of the same substance?
A: 76

Q: What about the IC50 (Titer in TZM.bl cells) [15] of the same substance?
A: 0.088 mg/L

Q: And the IC80 (Titer in TZM.bl cells) [15]?
A: 0.394 mg/L

Q: What about the MPI [15] of the same substance?
A: 100

Q: And the IC50 (Titer in TZM.bl cells) [16]?
A: 5.34 mg/L

Q: What about the IC80 (Titer in TZM.bl cells) [16] of the same substance?
A: 44.1 mg/L

Q: What about the MPI [16] of the same substance?
A: 82

Q: And the IC50 (Titer in TZM.bl cells) [17]?
A: 0.232 mg/L

Q: And the IC80 (Titer in TZM.bl cells) [17]?
A: 0.782 mg/L

Q: What about the MPI [17] of the same substance?
A: 100

Q: And the IC50 (Titer in TZM.bl cells) [18]?
A: > 50 mg/L

Q: And the IC80 (Titer in TZM.bl cells) [18]?
A: > 50 mg/L

Q: And the MPI [18]?
A: 43

Q: What about the IC50 (Titer in TZM.bl cells) [19] of the same substance?
A: 26.2 mg/L

Q: And the IC80 (Titer in TZM.bl cells) [19]?
A: > 50 mg/L

Q: And the MPI [19]?
A: 59

Q: And the IC50 (Titer in TZM.bl cells) [20]?
A: 0.329 mg/L

Q: And the IC80 (Titer in TZM.bl cells) [20]?
A: 1.06 mg/L

Q: And the MPI [20]?
A: 100

Q: And the IC50 (Titer in TZM.bl cells) [21]?
A: > 50 mg/L

Q: What about the IC80 (Titer in TZM.bl cells) [21] of the same substance?
A: > 50 mg/L

Q: And the MPI [21]?
A: 4
